Article PMC11261967, “The retrotransposon-derived capsid genes PNMA1 and PNMA4 maintain reproductive capacity” (Research Square, 2024)

Molecular target: the molecule itself
Assay: SEC + other: negative stain transmission electron microscopy; Ni-purified His-tagged protein run over Superose 6 Increase HiScale (80 ml); void (high molecular weight) fractions visualised by negative stain TEM (2% uranyl acetate), 2D classes in cryoSPARC; self-assembly into capsid-like particles

Protein | binding result
recombinant mouse PNMA1, His-tagged (natural protein, UniProt Q8C1C8 1-353, looked up, PNMA1, mouse, full-length Pnma1 cloned into the first cassette of a modified pET-Duet plasmid; The modified pET-Duet encodes a C-terminal 3C protease cut site followed by the His tag; no cleavage is described; source: E. coli LOBSTR (RIL plasmid), purified (Ni-Sepharose, Superose 6 size exclusion; void fractions collected); not shown: His tag, C-terminal, kept) MAMTLLEDWCRGMDVNSQRALLVWGIPVNCDETEIEETLQAAMPQVSYRVLGRMFWREENAKAALLELTGAVDYSLIPREMPGKGGLWKVVFKPPTSDAVFLERLHLFLAREGWTVQDVARVLGFQNPAPAPGPEMPAEMLNYILDNVIQPLVESIWYKKLTLFSGKDIPGPGEETFDSWLEHSNEIIEEWQVSDIEKRRRLMESLRGPAADVIRILKTNNAAITTAECLKALEQVFGSVESSRDAQVRFLNTYQNPGEKLSSYVIRLEPLLQKVVDKGVIDKDNVNQARLEQVIAGANHSGALRRQLWLAGAEEGPAPNLFQLLVQIREEEAKKEEEEAEAALLQLGLEGHF | binds
recombinant mouse PNMA4, His-tagged (natural protein, UniProt Q9ERH6 1-352, looked up, PNMA4 (also called MOAP-1 or MAP-1), mouse, full-length Pnma4 cloned into the first cassette of a modified pET-Duet plasmid; The modified pET-Duet encodes a C-terminal 3C protease cut site followed by the His tag; no cleavage is described; also called MOAP-1; MAP-1; source: E. coli LOBSTR (RIL plasmid), purified (Ni-Sepharose, Superose 6 size exclusion; void fractions collected); not shown: His …) MTLRLLEDWCRGMDMNPRKALLVAGIPPTCGVADIEEALQAGLAPLGEHRLLGRMFRRDENKNVALIGLTVETGSALVPKEIPAKGGVWRVIFKPPDTDSDFLCRLNEFLKGEGMTMGELTRVLGNRNDPLGLDPGIMIPEIRAPMLAQALNEALKPTLQYLRYKKLSVFSGRDPPGPGEEEFESWMFHTSQVMKTWQVSDVEKRRRLIESLRGPAFEIIRVLKINNPFITVAECLKTLETIFGIIDNPRALQVKYLTTYQKTDEKLSAYVLRLEPLLQKLVQKGAIEKEVVNQARLDQVIAGAVHKSVRRELGLPEGSPAPGLLQLLTLIKDKEAEEEEVLLQAELEGYCT | binds
